Measurements published in patent publication US10704030B2, “P450-BM3 variants with improved activity” (Codexis, Inc., priority 2015, dated 2020).

Key:
Format in all cases: biochemical
[1] = Validation of generalist properties: oxidation of diclofenac by lyophilized P450-BM3 variant, UPLC-MS; settings: [Diclofenac] = 1 mM; for TON: TON = [substrate]*% conversion/[P450]
Procedure, shortened: (§1)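 Lyophilized lysate of E. coli-expressed P450-BM3 variant (stock standardized to 12 μM heme) was incubated 24 h at 30 °C with 1 or 2 mM substrate, 1.0 mM NADP+, 25 mM glucose, 0.5 mg/mL glucose dehydrogenase and 5% DMSO in 100 mM potassium phosphate. Acetonitrile-quenched samples were analyzed by UPLC-MS (positive ESI).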

[2] = Validation of generalist properties: oxidation of loratadine by lyophilized P450-BM3 variant, UPLC-MS; settings: [Loratadine] = 1 mM; for TON: TON = [substrate]*% conversion/[P450]
Procedure, shortened: as §1

[3] = Validation of generalist properties: oxidation of imatinib by lyophilized P450-BM3 variant, UPLC-MS; settings: [Imatinib] = 1 mM; for TON: TON = [substrate]*% conversion/[P450]
Procedure, shortened: as §1

[4] = Validation of generalist properties: oxidation of gefitinib by lyophilized P450-BM3 variant, UPLC-MS; settings: [Gefitinib] = 1 mM; for TON: TON = [substrate]*% conversion/[P450]
Procedure, shortened: as §1

[5] = Validation of generalist properties over the four substrates screened
Method: For the production of lyophilized protein powders, LB agar plates supplemented with chloramphenicol (30 μg/mL) were streaked with E. coli containing a desired B. megaterium P450-BM3 variant in an IPTG-inducible vector. The plates were grown at 37° C. for 16 hrs before single clones were selected to inoculate a 15 mL Falcon™ tube (Fisher) containing TB media (3 mL) supplemented with chloramphenicol (30 μg/mL). The tube was shaken at 200 rpm, 30° C., and 85% humidity for 20-24 h to grow the cultures to saturation. Then, 2.5 mL of the overnight culture was used to inoculate sterile 1 L flasks containing TB medium (250 mL) supplemented with chloramphenicol (30 μg/mL), trace element solution (as described above), and 0.05 g/L ammonium iron (III) citrate. After being shaken at 250 rpm, 30° C., and 85% humidity to an OD600 of 0.8-1.2, P450 expression was induced by addition of IPTG (500 uM) and the heme precursor 5-aminolevulinic acid (5-ALA) to a final concentration of 500 uM. The cultures were grown for additional 20-24 hours and centrifuged in pre-weighed 250 mL centrifuge bottles for 20 minutes at 4000 rpm, 4° C. The supernatants were discarded, and the centrifuge bottles containing cell pellets were weighed. The pellets were resuspended in 50 mM potassium phosphate buffer with 2 mM DTT, pH 8.0 (5 mL of buffer per gram of cell pellet). The cells were lysed using a microfluidizer homogenizer, and the suspensions of cells and lysate were collected in sterile 50 mL centrifuge tubes. The samples were centrifuged for 30 minutes at 10,000 rpm, 4° C. The clarified lysate was collected into a plastic petri plate and frozen at −80° C. prior to lyophilization. The enzyme-containing lysates were lyophilized using standard methods known in the art.
Enzyme stocks (˜12 μM) were prepared by dissolving ˜20 mg of each enzyme in 100 mM potassium phosphate buffer, pH 8.0 (1 mL). The concentration of each enzyme stock solution was determined by the UV-visible absorption spectroscopy (after centrifugation to remove particulates) and diluted to standardize at 12 μM heme protein. Substrate solutions were prepared by dissolving each substrate in DMSO to reach a final concentration of 20 mM or 40 mM. Reaction mix (235 μL) followed by enzyme solution (50 μL) was added to the plates. The substrate stock solution was added to the enzyme solutions (15 μL at the two different concentrations). Each reaction contained 100 mM potassium phosphate, 1.0 mM NADP+, 25 mM glucose, 0.5 mg/mL glucose dehydrogenase, 5% DMSO and substrate at 1 or 2 mM. Loratadine, imatinib, and gefitinib (See, FIG. 1) were selected as substrates in addition to diclofenac to validate improved BM3 variants. The reactions were shaken at 450 rpm at 30° C. over 24 hours. All reactions were diluted with acetonitrile to a final concentration of 0.5 mM substrate. The plates were then centrifuged at 3,000 g for 1 hour at 20° C. The supernatant was diluted 1:1 with acetonitrile, filtered using a 0.4 micron filter, and analyzed by UPLC-MS.
For UPLC-MS analysis, the quenched and filtered reactions were transferred to 96-well HTP plates for analysis by UPLC on a Waters Acquity H-class system equipped with an autosampler. 1 uL of quenched sample was injected onto an Acquity UPLC HSS T3 column, 100 Å, (1.8 um; 2.1×100 mm). […] Column eluent was monitored by PDA (200-600 nm) prior to MS analysis in positive ESI mode (desolvation temperature 350° C., 3.25 kV spray voltage, cone voltage 25V). […]

[6] = fold improvement over parent MCYP-1.2-A12
[7] = fold improvement over parent MCYP-1.2-A07

Row | Molecule | % Conv. [1] | TON [1] | FIOPC (A12) [1, 6] | % Conv. [2] | TON [2] | FIOPC (A12) [2, 6] | % Conv. [3] | TON [3] | FIOPC (A12) [3, 6] | % Conv. [4] | TON [4] | FIOPC (A12) [4, 6] | performance (% conversion at 1 mM substrate loading) over the substrates screened, in words [5] | FIOPC (A07) [1, 7] | FIOPC (A07) [2, 7] | FIOPC (A07) [3, 7] | FIOPC (A07) [4, 7]
1 | Variant 17: P450-BM3 variant of SEQ ID NO: 6: K32R; C48S; Y52F; I95P; Q111R; G115R; I176V; L216Y; D232H; E349T; M491A; T577A; E619D; D722S (protein, P450_BM3, C48S; Y52F; I95P; Q111R; G115R; I176V; L216Y; D232H; E349T; M491A; T577A; E619D; D722S) MTIKEMPQPKTFGELKNLPLLNTDKPVQALMRIADELGEIFKFEAPGSVTRFLSSQRLIKEACDESRFDKNLSQALKFARDFLGDGLFTSWTHEPNWKKAHNILLPSFSQRAMKRYHAMMVDIAVQLVQKWERLNADEHIEVSEDMTRLTLDTIGLCGFNYRFNSFYRDQPHPFIVSMVRALDEVMNKLQRANPDDPAYDENKRQCQEDIKVMNDYVDKIIADRKARGEQSHDLLTQMLNGKDPETGEPLDDGNISYQIITFLIAGHETTSGLLSFALYFLVKNPHVLQKVAEEAARVLVDPVPSYKQVKQLKYVGMVLNEALRLWPTAPAFSLYAKEDTVLGGEYPLTKGDEVMVLIPQLHRDKTIWGDDVEEFRPERFENPSAIPQHAFKPFGNGQRACIGQQFALHEATLVLGMMLKHFDFEDHTNYELDIKETLTLKPEGFVVKAKSKKIPLGGIPSPSTEQSAKKVRKKAENAHNTPLLVLYGSNAGTAEGTARDLADIAMSKGFAPQVATLDSHAGNLPREGAVLIVTASYNGHPPDNAKQFVDWLDQASADEVKGVRYSVFGCGDKNWAATYQKVPAFIDETLAAKGAENIADRGEADASDDFEGTYEEWRDHMWSDVAAYFNLDIENSEDNKSTLSLQFVDSAADMPLAKMHGAFSTNVVASKELQQPGSARSTRHLEIELPKEASYQEGDHLGVIPRNYEGIVNRVTARFGLSASQQIRLEAEEEKLAHLPLAKTVSVEELLQYVELQDPVTRTQLRAMAAKTVCPPHKVELEALLEKQAYKEQVLAKRLTMLELLEKYPACEMKFSEFIALLPSIRPRYYSISSSPRVDEKQASITVSVVSGEAWSGYGEYKGIASNYLAELQEGDTITCFISTPQSEFTLPKDPETPLIMVGPGTGVAPFRGFVQARKQLKEQGQSLGEAHLYFGCRSPHEDYLYQEELENAQSEGIITLHTAFSRMPNQPKTYVQHVMEQDGKKLIELLDQGAHFYICGDGSQMAPAVEATLMKSYADVHQVSEADARLWLQQLEEKGRYAKDVWAG | ++++ (15.01-20.00) | ‡‡‡‡ (10000-50000) | * (0.0-3.0) | + (0-5.00) | ‡ (0-1000) | * (0.0-3.0) | ++++ (15.01-20.00) | ‡‡‡‡ (10000-50000) | **** (10.01-15.00) | ++++ (15.01-20.00) | ‡‡‡‡ (10000-50000) | *** (5.01-10.0) | improved and significant activity for three out of four substrates screened |  |  |  | 
2 | Variant 14: P450-BM3 variant of SEQ ID NO: 4: C48S; I95P; G115R; L216Y; D232H; M491A; N574T; D722S (protein, P450_BM3, I95P; G115R; L216Y; D232H; M491A; N574T; D722S) MTIKEMPQPKTFGELKNLPLLNTDKPVQALMKIADELGEIFKFEAPGSVTRYLSSQRLIKEACDESRFDKNLSQALKFARDFAGDGLVTSWTHEPNWKKAHNILLPSFSQQAMKRYHAMMVDIAVQLVQKWERLNADEHIEVSEDMTRLTLDTIGLCGFNYRFNSFYRDQPHPFIISMVRALDEVMNKLQRANPDDPAYDENKRQCQEDIKVMNDYVDKIIADRKARGEQSHDLLTQMLNGKDPETGEPLDDGNISYQIITFLIAGHETTSGLLSFALYFLVKNPHVLQKVAEEAARVLVDPVPSYKQVKQLKYVGMVLNEALRLWPTAPAFSLYAKEDTVLGGEYPLEKGDEVMVLIPQLHRDKTIWGDDVEEFRPERFENPSAIPQHAFKPFGNGQRACIGQQFALHEATLVLGMMLKHFDFEDHTNYELDIKETLTLKPEGFVVKAKSKKIPLGGIPSPSTEQSAKKVRKKAENAHNTPLLVLYGSNAGTAEGTARDLADIAMSKGFAPQVATLDSHAGNLPREGAVLIVTASYNGHPPDNAKQFVDWLDQASADEVKGVRYSVFGCGDKTWATTYQKVPAFIDETLAAKGAENIADRGEADASDDFEGTYEEWREHMWSDVAAYFNLDIENSEDNKSTLSLQFVDSAADMPLAKMHGAFSTNVVASKELQQPGSARSTRHLEIELPKEASYQEGDHLGVIPRNYEGIVNRVTARFGLSASQQIRLEAEEEKLAHLPLAKTVSVEELLQYVELQDPVTRTQLRAMAAKTVCPPHKVELEALLEKQAYKEQVLAKRLTMLELLEKYPACEMKFSEFIALLPSIRPRYYSISSSPRVDEKQASITVSVVSGEAWSGYGEYKGIASNYLAELQEGDTITCFISTPQSEFTLPKDPETPLIMVGPGTGVAPFRGFVQARKQLKEQGQSLGEAHLYFGCRSPHEDYLYQEELENAQSEGIITLHTAFSRMPNQPKTYVQHVMEQDGKKLIELLDQGAHFYICGDGSQMAPAVEATLMKSYADVHQVSEADARLWLQQLEEKGRYAKDVWAG | ++++ (15.01-20.00) | ‡‡‡‡ (10000-50000) |  | +++ (10.01-15.00) | ‡‡‡ (5001-10000) |  | +++ (10.01-15.00) | ‡‡‡ (5001-10000) |  | ++++ (15.01-20.00) | ‡‡‡‡ (10000-50000) |  | moderate activity for all four substrates | ** (3.01-5.0) | * (0.0-3.0) | * (0.0-3.0) | **** (10.01-15.00)
